Each substance was assayed against hPTH (1-34) (human) (UniProt P01270).
Design: unit not given beside the values

IC50: 50% inhibition of cAMP production in cultured mouse osteoblast MC3T3-E1 cells	Substance
0.007	Compound 1 (Ser-Glu-Ile-Gln-Leu-Met-His-Asn-Leu-Gly-Lys-Ser-Ile-Gln-Asp-Leu-Arg-Arg-Arg-Phe-Phe-Leu-His-His-Leu-Ile-Ala-Glu-Ile-His-Thr-Ala-NH2) (peptide)
0.015	Compound 3 (Ile-Gln-Leu-Met-His-Asn-Leu-Gly-Lys-Ser-Ile-Gln-Asp-Leu-Arg-Arg-Arg-Phe-Phe-Leu-His-His-Leu-Ile-Ala-Glu-Ile-His-Thr-Ala-NH2) (peptide)
1	[Tyr^34]-hPTH (3-34)-NH2 (from UniProt P01270) (peptide)

— US5252705
